Molecular target: budding yeast condensin holoenzyme (heteropentamer of Smc2, Smc4, Brn1, Ycg1 and Ycs4) (budding yeast) (UniProt P38989)
Experiment: SEC; Superose 6 10/300 gel filtration as the last step of purification after nickel-NTA and StrepTactin; self-association of the heteropentamer (monomer) into a multimer

“budding yeast condensin holoenzyme (heteropentamer of Smc2, Smc4, Brn1, Ycg1 and Ycs4), P38989 1-1170; Q12267 1-1418; P38170 1-754; Q06680 1-1035; Q06156 1-1176” gave a percent multimeric in the Streptactin-purified fraction of 30%.

Source: PMC5660149, “Oligomerization and ATP stimulate condensin-mediated DNA compaction” (Scientific Reports, 2017)
